# Results: the supplement of paper PMC9732359
# ± gives the uncertainty stated by the source.
# Test: protein stability index of a GFP-peptide fusion (yeast GPS) (PSI 1-4); higher = more stable; sorted into four equal gates, so the index is relative within each strain
# How it was run: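 Peptides tiling yeast proteins in 17-residue segments were fused downstream of GFP, with Cherry expressed from the same plasmid. As a pooled library in yeast, mid-log cultures grown in leucine-free medium were sorted into four equal gates by GFP/Cherry fluorescence ratio. Gate plasmids were PCR-amplified and Illumina-sequenced, and barcodes linked reads to strains. Each peptide received a protein stability index equal to the sum of each gate's read frequency times its gate number.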
sequence,measurement,setting,value
ELLEHIETIGHLITKEE [RPN5],protein stability index,doa10∆,2.91 ± 0.076
same,protein stability index,pdr5∆,3.03 ± 0.11
same,protein stability index,san1∆,3.08 ± 0.068
same,protein stability index,ubr1∆,3.12 ± 0.076
KASVLEISPQDSIASVL [GAL11],protein stability index,doa10∆,3.27 ± 0.09
same,protein stability index,pdr5∆,3.39 ± 0.066
same,protein stability index,san1∆,3.13 ± 0.083
same,protein stability index,ubr1∆,3.13 ± 0.086
GHIGAYLIVAGVDPTGS [PUP1],protein stability index,doa10∆,1.48 ± 0.1
same,protein stability index,pdr5∆,1.83 ± 0.093
same,protein stability index,san1∆,1.68 ± 0.16
same,protein stability index,ubr1∆,1.65 ± 0.11
TIKISTNDDSIKNLTVQ [RGR1],protein stability index,doa10∆,2.88 ± 0.13
same,protein stability index,pdr5∆,3.05 ± 0.1
same,protein stability index,san1∆,2.9 ± 0.074
same,protein stability index,ubr1∆,2.96 ± 0.14
LGRTGSRGGVTQVRVEF [RPS28A],protein stability index,doa10∆,3.29 ± 0.053
same,protein stability index,pdr5∆,3.19 ± 0.053
same,protein stability index,san1∆,3.31 ± 0.047
same,protein stability index,ubr1∆,3.19 ± 0.044
QPSYNSAIIENAFRKEE [GAL11],protein stability index,doa10∆,2.86 ± 0.086
same,protein stability index,pdr5∆,2.68 ± 0.091
same,protein stability index,san1∆,2.74 ± 0.077
same,protein stability index,ubr1∆,2.76 ± 0.055
ESKLKIDPDTKAPNAVV [RPB11],protein stability index,doa10∆,2.24 ± 0.2
same,protein stability index,pdr5∆,2.56 ± 0.22
same,protein stability index,san1∆,2.62 ± 0.11
same,protein stability index,ubr1∆,2.92 ± 0.14
DLLKNAPLFKKNSSRPM [SMD3],protein stability index,doa10∆,2.27 ± 0.047
same,protein stability index,pdr5∆,1.76 ± 0.043
same,protein stability index,san1∆,1.77 ± 0.11
same,protein stability index,ubr1∆,1.62 ± 0.034
GCSKICDLSSKFNKSKA [YCS4],protein stability index,doa10∆,3.08 ± 0.087
same,protein stability index,pdr5∆,2.82 ± 0.093
same,protein stability index,san1∆,3.16 ± 0.045
same,protein stability index,ubr1∆,2.99 ± 0.057
STYLPKLISAFDDLEVE [RRP42],protein stability index,doa10∆,2.63 ± 0.051
same,protein stability index,pdr5∆,2.75 ± 0.042
same,protein stability index,san1∆,2.58 ± 0.05
same,protein stability index,ubr1∆,2.74 ± 0.032
QIMQNPTHYKIPAWFLN [RPS18A],protein stability index,doa10∆,2.02 ± 0.072
same,protein stability index,pdr5∆,1.99 ± 0.071
same,protein stability index,san1∆,1.66 ± 0.084
same,protein stability index,ubr1∆,1.6 ± 0.048
NDDALDLDLDLFDPDDF [MED4],protein stability index,doa10∆,2.88 ± 0.045
same,protein stability index,pdr5∆,3.04 ± 0.068
same,protein stability index,san1∆,2.81 ± 0.036
same,protein stability index,ubr1∆,3.07 ± 0.032
LTADYDALDIANRIGYI [RPL25],protein stability index,doa10∆,3.33 ± 0.045
same,protein stability index,pdr5∆,3.4 ± 0.062
same,protein stability index,san1∆,3.54 ± 0.038
same,protein stability index,ubr1∆,3.43 ± 0.052
QLLTPGSKISSNDLDKF [YGL172W/NUP49],protein stability index,doa10∆,2.88 ± 0.19
same,protein stability index,pdr5∆,2.85 ± 0.084
same,protein stability index,san1∆,3.13 ± 0.1
same,protein stability index,ubr1∆,2.54 ± 0.2
IPNRRFTLWWSPTINRA [PRP8],protein stability index,doa10∆,2.65 ± 0.069
same,protein stability index,pdr5∆,2.28 ± 0.065
same,protein stability index,san1∆,1.65 ± 0.052
same,protein stability index,ubr1∆,2.29 ± 0.047
FATNEERQMNFLTNELI [SWI3],protein stability index,doa10∆,3.28 ± 0.1
same,protein stability index,pdr5∆,2.32 ± 0.07
same,protein stability index,san1∆,1.96 ± 0.14
same,protein stability index,ubr1∆,2.62 ± 0.053
AFGVSVAFLDNDLGKFI [RPN7],protein stability index,doa10∆,3.17 ± 0.086
same,protein stability index,pdr5∆,3.16 ± 0.1
same,protein stability index,san1∆,3.07 ± 0.081
same,protein stability index,ubr1∆,3.28 ± 0.057
LVSRGGCGNTQPTIRKD [RPO21],protein stability index,doa10∆,2.96 ± 0.07
same,protein stability index,pdr5∆,2.74 ± 0.11
same,protein stability index,san1∆,2.83 ± 0.043
same,protein stability index,ubr1∆,2.9 ± 0.043
SPELKADLRPLQIKSIR [RPS7B],protein stability index,doa10∆,2.42 ± 0.14
same,protein stability index,pdr5∆,2.9 ± 0.13
same,protein stability index,san1∆,2.67 ± 0.13
same,protein stability index,ubr1∆,2.98 ± 0.091
EIKVGKQRFQGCNNLIK [ARP9],protein stability index,doa10∆,2.76 ± 0.16
same,protein stability index,pdr5∆,3.06 ± 0.13
same,protein stability index,san1∆,3.39 ± 0.092
same,protein stability index,ubr1∆,3.34 ± 0.12
TRQASDLASSKEVLAKI [RPN5],protein stability index,doa10∆,2.92 ± 0.11
same,protein stability index,pdr5∆,2.96 ± 0.06
same,protein stability index,san1∆,2.99 ± 0.077
same,protein stability index,ubr1∆,2.85 ± 0.076
SLAKSSALWSSRKGIAF [ECM29],protein stability index,doa10∆,1.9 ± 0.069
same,protein stability index,pdr5∆,1.88 ± 0.14
same,protein stability index,san1∆,1.83 ± 0.12
same,protein stability index,ubr1∆,1.59 ± 0.15
EYLKGSESQLNSTLKKV [YCS4],protein stability index,doa10∆,2.85 ± 0.17
same,protein stability index,san1∆,2.5 ± 0.2
PTPSVKTEPVGTGLQSY [RPC53],protein stability index,doa10∆,3.4 ± 0.25
same,protein stability index,pdr5∆,3.23 ± 0.13
same,protein stability index,san1∆,3.16 ± 0.1
same,protein stability index,ubr1∆,3.25 ± 0.11
IKNISNRVGLTLDNIDD [ARP9],protein stability index,doa10∆,2.65 ± 0.24
same,protein stability index,pdr5∆,3.03 ± 0.11
same,protein stability index,san1∆,3.16 ± 0.091
same,protein stability index,ubr1∆,3.32 ± 0.073
LNYGVYLNGTLIGSIRF [RET1],protein stability index,doa10∆,1.43 ± 0.07
same,protein stability index,pdr5∆,2.29 ± 0.097
same,protein stability index,san1∆,2.53 ± 0.088
same,protein stability index,ubr1∆,2.71 ± 0.088
KTRFKGSQFIVVSLKEG [SMC2],protein stability index,doa10∆,3.46 ± 0.12
same,protein stability index,pdr5∆,3.16 ± 0.08
same,protein stability index,san1∆,3.35 ± 0.069
same,protein stability index,ubr1∆,3.34 ± 0.046
LRLRGGIIEPSLKALAS [RPL40A],protein stability index,doa10∆,3.1 ± 0.046
same,protein stability index,pdr5∆,3.02 ± 0.048
same,protein stability index,san1∆,2.7 ± 0.048
same,protein stability index,ubr1∆,3.02 ± 0.045
NIYNFSPSERIEPLEIN [BRR2],protein stability index,doa10∆,2.39 ± 0.064
same,protein stability index,pdr5∆,2.78 ± 0.051
same,protein stability index,san1∆,1.93 ± 0.056
same,protein stability index,ubr1∆,2.2 ± 0.05
MPDEFNTLYTAIITDDL [SRP72],protein stability index,doa10∆,2.39 ± 0.047
same,protein stability index,pdr5∆,2.5 ± 0.043
same,protein stability index,san1∆,2.6 ± 0.035
same,protein stability index,ubr1∆,2.64 ± 0.043
DNGESAFRTLRLARSEK [RPL13A],protein stability index,doa10∆,3.39 ± 0.24
same,protein stability index,pdr5∆,3.51 ± 0.15
same,protein stability index,ubr1∆,3.31 ± 0.084
LLDRILPKLKATGHRVL [SNF2],protein stability index,doa10∆,2.57 ± 0.1
same,protein stability index,pdr5∆,2.54 ± 0.08
same,protein stability index,san1∆,2.3 ± 0.08
same,protein stability index,ubr1∆,2.63 ± 0.088
KIYMLYSLQPSVDITGG [RPC34],protein stability index,doa10∆,1.94 ± 0.13
same,protein stability index,pdr5∆,2.27 ± 0.15
same,protein stability index,ubr1∆,2.27 ± 0.14
SARSSVHESLVTQSNIL [SRB8],protein stability index,doa10∆,2.77 ± 0.078
same,protein stability index,pdr5∆,3.04 ± 0.076
same,protein stability index,san1∆,2.81 ± 0.061
same,protein stability index,ubr1∆,2.83 ± 0.086
RKEPPATVEECVKLTVR [PRE6],protein stability index,doa10∆,1.45 ± 0.06
same,protein stability index,pdr5∆,1.67 ± 0.074
same,protein stability index,san1∆,1.7 ± 0.2
same,protein stability index,ubr1∆,1.43 ± 0.055
GKLVVSQEMVPRYFSEA [SIR3],protein stability index,doa10∆,3.31 ± 0.086
same,protein stability index,pdr5∆,3.43 ± 0.17
same,protein stability index,san1∆,3.38 ± 0.079
same,protein stability index,ubr1∆,3.21 ± 0.12
FYMLNAGIRPKFILALN [RPN1],protein stability index,doa10∆,2.22 ± 0.16
same,protein stability index,pdr5∆,1.81 ± 0.078
same,protein stability index,san1∆,1.78 ± 0.085
same,protein stability index,ubr1∆,1.37 ± 0.058
PSYAERQSSDESDNYRL [YML031W/NDC1],protein stability index,doa10∆,2.62 ± 0.049
same,protein stability index,pdr5∆,2.32 ± 0.043
same,protein stability index,san1∆,2.75 ± 0.057
same,protein stability index,ubr1∆,2.7 ± 0.036
EKFSEKMLKIWTMAFRT [ECM29],protein stability index,doa10∆,2 ± 0.11
same,protein stability index,pdr5∆,2.09 ± 0.1
same,protein stability index,san1∆,1.37 ± 0.2
same,protein stability index,ubr1∆,1.48 ± 0.09
VSALDKCIKYSEKLITK [ECM29],protein stability index,doa10∆,3.18 ± 0.14
same,protein stability index,pdr5∆,2.15 ± 0.1
same,protein stability index,san1∆,1.94 ± 0.12
same,protein stability index,ubr1∆,1.92 ± 0.093
KANISLETLEHNGAPHH [RPO21],protein stability index,doa10∆,3.29 ± 0.16
same,protein stability index,pdr5∆,3.05 ± 0.15
same,protein stability index,san1∆,3.19 ± 0.12
LQRQQRKSKLNLDNLQK [POP4],protein stability index,doa10∆,2.72 ± 0.077
same,protein stability index,pdr5∆,3.22 ± 0.2
same,protein stability index,san1∆,3.09 ± 0.064
same,protein stability index,ubr1∆,2.92 ± 0.15
MKTPSLTVYLEPGHAAD [RPO21],protein stability index,doa10∆,3.01 ± 0.092
same,protein stability index,pdr5∆,2.7 ± 0.079
same,protein stability index,san1∆,2.9 ± 0.059
same,protein stability index,ubr1∆,3 ± 0.073
ISDIPYVISLSYTDAQD [YMR129W/POM152],protein stability index,doa10∆,2.16 ± 0.066
same,protein stability index,pdr5∆,2.41 ± 0.068
same,protein stability index,san1∆,2.5 ± 0.061
same,protein stability index,ubr1∆,2.64 ± 0.06
RTPDSISVNSSSFSLTF [POP1],protein stability index,doa10∆,2.56 ± 0.045
same,protein stability index,pdr5∆,2.62 ± 0.042
same,protein stability index,san1∆,2.44 ± 0.045
same,protein stability index,ubr1∆,2.37 ± 0.038
RKCETQKQWDDIAFVLN [YCS4],protein stability index,doa10∆,2.96 ± 0.076
same,protein stability index,pdr5∆,3.01 ± 0.076
same,protein stability index,san1∆,2.7 ± 0.12
same,protein stability index,ubr1∆,3.13 ± 0.078
KILSPTMYMEVYTAIYN [CDC53],protein stability index,doa10∆,1.58 ± 0.058
same,protein stability index,pdr5∆,1.62 ± 0.061
same,protein stability index,san1∆,1.63 ± 0.08
same,protein stability index,ubr1∆,1.74 ± 0.055
VSLTKRKQEREITSLRQ [YIL149C/MLP2],protein stability index,doa10∆,2.03 ± 0.2
same,protein stability index,pdr5∆,2.32 ± 0.14
same,protein stability index,san1∆,2.45 ± 0.14
same,protein stability index,ubr1∆,2.35 ± 0.071
SFNMAQIPQQLYQSLTP [SNF5],protein stability index,doa10∆,2.16 ± 0.067
same,protein stability index,pdr5∆,2.35 ± 0.072
same,protein stability index,san1∆,2.14 ± 0.054
same,protein stability index,ubr1∆,2.12 ± 0.047
LLWLVLIHPENFTCNRK [SWI1],protein stability index,doa10∆,1.9 ± 0.056
same,protein stability index,pdr5∆,1.92 ± 0.063
same,protein stability index,san1∆,2.38 ± 0.064
same,protein stability index,ubr1∆,2.96 ± 0.074
NSSKPAFSFGAKSNEDK [YJL041W/NSP1],protein stability index,doa10∆,3.19 ± 0.1
same,protein stability index,pdr5∆,3.13 ± 0.056
same,protein stability index,san1∆,3.32 ± 0.077
same,protein stability index,ubr1∆,3.33 ± 0.068
